The target of one experiment is T1, soluble CD16A (sCD16A) (human, UniProt P08637 17-208).
T1 construct: extracellular domain; also called sCD16A-Biotin; HRP conjugated sCD16A
Nature of the experiment: sandwich ELISA, CD32B coat, HRP-CD16 probe. On the technique in general: An ELISA detects its analyte on a solid surface through an enzyme-linked reagent.

The next experiment deals with T2, sCD32B-Ig (human, UniProt P31994 43-217).
T2 construct: extracellular domain; also called CD32B (plate coat of the sandwich ELISA); not shown: Ig part not described
T2 sequence (looked up): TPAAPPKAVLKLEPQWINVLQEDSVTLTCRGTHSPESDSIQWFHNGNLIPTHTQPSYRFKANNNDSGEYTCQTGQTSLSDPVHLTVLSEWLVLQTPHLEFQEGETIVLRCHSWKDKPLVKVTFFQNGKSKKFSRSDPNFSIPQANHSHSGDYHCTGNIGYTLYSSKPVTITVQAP
Nature of the experiment: sandwich ELISA, CD32B coat, HRP-CD16 probe.

T1 sequence (P08637 17-208): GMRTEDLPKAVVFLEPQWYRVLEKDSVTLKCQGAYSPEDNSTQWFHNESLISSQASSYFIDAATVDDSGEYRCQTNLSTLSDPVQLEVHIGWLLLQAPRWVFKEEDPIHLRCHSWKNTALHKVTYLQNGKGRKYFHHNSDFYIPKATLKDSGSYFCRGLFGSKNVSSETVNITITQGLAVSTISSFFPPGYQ

B1: diabody of constructs 9 and 1 (pMGX0719 + pMGX0669) (bispecific antibody, human IgG1)
chain 1: not shown
chain 2: EIVLTQSPDFQSVTPKEKVTFTCRTSQSIGTNIHWYQQKPDQSPKLLIKEVSESISGVPSRFSGSGSGTDFTLTINSLEAEDAATYYCQQSNTWPFTFGGGTKVEIKGGGSGGGGQVTLRESGPALVKPTQTLTLTCTFSGFSLSTSGMGVGWIRQPPGKALEWLAHIWWDDDKRYNPALKSRLTISKDTSKNQVVLTMTNMDPVDTATYYCAQINPAWFAYWGQGTLVTVSSLGGC
notes: hinge/Fc at the N-terminus of the heavier chain; about 150 kDa species on Western blot; also called constructs 1 and 9; constructs 9+1
In the case of B1, the binding result with soluble CD16A (sCD16A) and with sCD32B-Ig was “binds” throughout.

B2: diabody of constructs 10 and 1 (pMGX0718 + pMGX0669) (bispecific antibody)
chain 1: not shown
chain 2: EIVLTQSPDFQSVTPKEKVTFTCRTSQSIGTNIHWYQQKPDQSPKLLIKEVSESISGVPSRFSGSGSGTDFTLTINSLEAEDAATYYCQQSNTWPFTFGGGTKVEIKGGGSGGGGQVTLRESGPALVKPTQTLTLTCTFSGFSLSTSGMGVGWIRQPPGKALEWLAHIWWDDDKRYNPALKSRLTISKDTSKNQVVLTMTNMDPVDTATYYCAQINPAWFAYWGQGTLVTVSSLGGC
notes: Fc at the N-terminus of the heavier chain; at least two species of about 75 and 100 kDa on Western blot; also called constructs 1 and 10; constructs 10+1; copies: 2 + 2
As for B2, the binding result with soluble CD16A (sCD16A) and with sCD32B-Ig was “binds” in each case.

The values are drawn from patent publication EP2158221B1 (MacroGenics, Inc., dated 2018).
